Reference: patent publication US20260042865A1 (Amgen, published 2026)

Tests used:
[1] = target: T1, Human ASGR1 protein (R&D Systems cat #4394-AS/CF) (human, UniProt P07306 62-291); assay: SPR (BIAcore 3000), human ASGR1 immobilized, pH 7.4 with 2 mM Ca2+
T1 construct: Bought protein; also called huASGR1
T1 sequence (looked up): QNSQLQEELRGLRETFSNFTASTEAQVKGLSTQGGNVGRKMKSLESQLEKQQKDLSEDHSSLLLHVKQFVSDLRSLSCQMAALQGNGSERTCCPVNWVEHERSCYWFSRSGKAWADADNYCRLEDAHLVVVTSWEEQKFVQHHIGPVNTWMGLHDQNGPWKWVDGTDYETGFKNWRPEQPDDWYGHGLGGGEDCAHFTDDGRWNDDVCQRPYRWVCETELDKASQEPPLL
Protocol: (§1) The binding of anti-ASGR1 antibodies binding ASGR1 in a pH/Ca2+ dependent or independent manner was assessed by BIAcore. Equilibrium binding affinities of the interaction between (i) mouse or human ASGR1 and anti-ASGR1 antibodies; and (ii) mouse or human ASGR1 and bispecific scFv molecules of the present inventions were determined using BIAcore 3000. Mouse and human ASGR1 proteins were obtained from R&D-systems (cat #2755-AS/CF and 4394-AS/CF, respectively) and immobilized on CM5 chips using amine coupling chemistry to a density of ˜1500 RU. On each CM5 chip a reference flow cell is used which was coupled with coupling buffer only. Antibodies were injected over immobilized ASGR1 at a concentration range of 1000 nM-0.2 nM, with a two-fold serial dilution. To determine pH/Ca-sensitive binding, runs were performed using phosphate buffered saline (PBS) with 0.01% (v/v) Tween20 and 0.05% azide with either pH 7.4/2 mM calcium chloride or pH 6.0/2 μM calcium chloride. The chip was regenerated using 0.15 M NaCl, 0.1 M glycine pH 1.5 buffer between each injection cycles. Equilibrium dissociation constants were determined using 1:1 interaction model using BIAevaluation.

[2] = target: T2, Mouse ASGR1 protein (R&D Systems cat #2755-AS/CF) (mouse, UniProt P34927 61-284, limits assumed); assay: SPR (BIAcore 3000), mouse ASGR1 immobilized, antibody analyte, pH 7.4, 2 mM CaCl2; pH 7.4, 2 mM CaCl2; Table 1 experiment
T2 construct: Bought protein; also called muASGR1
T2 sequence (looked up): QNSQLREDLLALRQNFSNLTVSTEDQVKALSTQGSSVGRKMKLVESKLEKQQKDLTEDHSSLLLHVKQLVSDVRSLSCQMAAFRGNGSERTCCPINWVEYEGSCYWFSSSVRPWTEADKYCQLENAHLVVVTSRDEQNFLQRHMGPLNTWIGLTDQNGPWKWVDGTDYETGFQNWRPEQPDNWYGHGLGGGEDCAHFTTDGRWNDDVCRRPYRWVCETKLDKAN

[3] = target: T2, Mouse ASGR1 protein (R&D Systems cat …); assay: SPR (BIAcore 3000), mouse ASGR1 immobilized, pH 7.4 with 2 mM Ca2+; pH 7.4 with 2 mM Ca2+; Table 3 experiment (comparison with bispecific scFv)
Protocol: as §1

[4] = target: T2, Mouse ASGR1 protein (R&D Systems cat …); assay: SPR (BIAcore 3000), mouse ASGR1 immobilized, antibody analyte, pH 6, 2 uM CaCl2
Protocol: (§2) Antibodies binding to ASGR1 in a pH/Ca2+-dependent manner were screened by employing surface plasmon resonance. Antibodies were screened either at pH 7.4 with 2 mM CaCl2 or at pH 6.0 with 2 μM CaCl2 to analyze the binding to ASGR1. KD values were determined by immobilizing receptor on the chip and antibodies as analytes.
(§3) Equilibrium binding affinities of the interaction between mouse ASGR1 and anti-ASGR1 antibodies were determined using BIAcore 3000. Mouse ASGR1 protein was obtained from R&D-systems (cat #2755-AS/CF) and immobilized on CM5 chips using amine coupling chemistry to a density of ˜1500 RU. On each CM5 chip a reference flow cell is used which was coupled with coupling buffer only. Antibodies were injected over immobilized ASGR1 at a concentration range of 1000 nM-0.2 nM, with a two-fold serial dilution. To determine pH/Ca-sensitive binding, runs were performed using phosphate buffered saline (PBS) with 0.01% (v/v) Tween20 and 0.05% azide with either pH 7.4/2 mM calcium chloride or pH 6.0/2 μM calcium chloride. The chip was regenerated using 0.15 M NaCl, 0.1 M glycine pH 1.5 buffer between each injection cycles. Equilibrium dissociation constants were determined using 1:1 interaction model using BIAevaluation.

[5] = target: T2, Mouse ASGR1 protein (R&D Systems cat …); assay: SPR (BIAcore 3000), mouse ASGR1 immobilized, antibody analyte, pH 7.4, 2 mM CaCl2
Protocol: as §2, §3

[6] = target: T2, Mouse ASGR1 protein (R&D Systems cat …); assay: SPR (BIAcore 3000), mouse ASGR1 immobilized, pH 7.4 with 2 mM Ca2+
Protocol: as §1

B1: Catabolic anti-ASGR1 antibody (antibody, human IgG1, kappa, N297G, V domains shown)
VH: QVQLVESGGGVVQPGRSLRLSCAASGFTFSSYGMHWVRQAPGKGLEWVAVIWYDGSNKYYADSVKGRFTISRDNSKNTLYLQMNSLRAEDTAVYYCARDSSPYGMDVWGQGTTVTVSS
VL: DIQMTQSPSSVSASVGDRVTITCRASQGISSWLAWYQQKPGKAPKLLIYGASSLQSGVPSRFSASGSGTDFTLTISSLQPEDFATYYCQQSDSFPRTFGQGTKVEIKR
notes: also called CAT-WT; CAT mAb
A Kd [1] of 4 nM, a Kd [2] of 20 nM and a Kd [3] of 12.1 nM were found for B1 in this work.

B2: Non-catabolic anti-ASGR1 antibody (antibody, human IgG1, kappa, N297G, V domains shown)
VH: EVQLVESGGGLVQPGRSLKLSCAASGFTFSDYNMAWVRQAPKKGLEWVATIIYDGGSTYYRHSVKGRFTISRDNAKSTHSLQMDSLRSEDTATYYCARQTYFGSRDYFDYWGQGVMVTVSS
VL: DIQMTQSPTSLSASLGETVSIECLTSEDIYNNLAWYQQKPGKSPQLLISYASNFQDGVPSRFSGSGSGTQYSLKINSLESEDAATYFCLQDSEYPPTFGGGTKLELKR
notes: also called Non-CAT-WT; non-CAT mAb
A Kd [4] of 5.5 nM and a Kd [5] of 6 nM were found for B2 in this work.

B3: Catabolic bispecific scFv molecule (binds ASGR1 in a catabolic manner and Ig in a non-catabolic manner) (bispecific antibody)
scFv: ELQLQQSGAELVRPGASVKLSCTTSGFNVKDTYIHWVRQRPEQGLEWIGRIDPANGNTKYDPKFQDRATITTDTSSITAYLQLSSLTSEDTAVYYCARNYGSNYDPMDYWGQGTSLTVSSGGGGSGGGGSGGGGSDILLTQSPAILSVSPGERVSFSCRASQNIDTNIHWYQRRTNDSPRLLIKYASESISGIPSRFSGSGSGTDFTLSINSVESEDIADYYCQQSDTWPWTFGGGTKLEIKRSGGGGSQVQLVESGGGVVQPGRSLRLSCAASGFTFSSYGMHWVRQAPGKGLEWVAVIWYDGSNKYYADSVKGRFTISRDNSKNTLYLQMNSLRAEDTAVYYCARDSSPYGMDVWGQGTTVTVSSGGGGSGGGGSGGGGSDIQMTQSPSSVSASVGDRVTITCRASQGISSWLAWYQQKPGKAPKLLIYGASSLQSGVPSRFSASGSGTDFTLTISSLQPEDFATYYCQQSDSFPRTFGQGTKVEIKRHHHHHH
notes: Single chain: anti-IgG scFv, SG4S linker, catabolic anti-ASGR1 scFv, C-terminal 6xHis; also called CAT bispecific scFv molecule; CAT-bispecific scFv molecule
A Kd [1] of 23 nM and a Kd [6] of 78.3 nM were found for B3 in this work.
